Here are results for one molecule from US20260266838A1 (NORDIC BIOSCIENCE A S, published 2026).

Ends that are not written are not given here.

This assay addresses T1, monoclonal antibody (mAb) specific for the N-terminus amino acid sequence …, HRP-labeled, employed in the … (horseradish peroxidase (HRP) label, site not stated).
T1 construct: Mouse IgG2b / kappa from a hybridoma; also called HRP-labeled mAb; selected mAb
The experiment in a line: competitive ELISA: selection peptide against coated …-K-biotin for the HRP-labeled mAb; 10 independent runs. How it is done: All incubation steps were performed in the dark with constant shaking at 300 rpm and followed by five times wash of the wells using washing buffer ([…], 50 mM NaCl, pH 7.2). A 10-point calibration curve was plotted using a 4-parameter logistic curve fit of the selection peptide dilutions. Data were analyzed using the SoftMax Pro version 7.1.0 software (Molecular Devices).
Antibody specificity was evaluated using synthetic peptides and calculated as percentage of signal inhibition of two-fold diluted selection and deselection peptides (Table 1). Unspecific binding was tested using a nonsense screening peptide (biotin-[…] (SEQ ID NO: 23)). IC50 (half-maximal inhibition concentration) was determined from 10 independent runs of the 10-point calibration curve. The technical lower limit of detection (LLOD) was calculated as the mean signal of 60 determinations of a blank sample (i.e., assay buffer) plus 3× standard deviation (SD). The upper limit of quantification (ULOQ) was determined from 10 independent runs of the calibration curve and determined as the highest concentration of selection peptide determined with a recovery percentage within 100±20% of the nominal concentration and a CV<20%. […] Two-fold dilutions of four human serum samples quantified in three independent runs were used to evaluate assay linearity, calculated as percentage of recovery of the undiluted sample. […]

T1 sequence (VH, as listed by the source, chain 1 of 2): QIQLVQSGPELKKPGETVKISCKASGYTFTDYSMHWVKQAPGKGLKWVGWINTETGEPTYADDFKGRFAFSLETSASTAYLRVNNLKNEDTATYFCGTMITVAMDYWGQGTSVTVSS
T1 sequence (VL, as listed by the source, chain 2 of 2): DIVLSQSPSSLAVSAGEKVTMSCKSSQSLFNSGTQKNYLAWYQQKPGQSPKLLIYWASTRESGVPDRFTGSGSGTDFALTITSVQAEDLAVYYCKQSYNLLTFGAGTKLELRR

B1: Selection peptide VDTLPQKPRE (peptide)
peptide: VDTLPQKPRE
modifications: not fully specified
notes: Synthetic peptide (Genscript); the end 75 follows from the ten residues; also called calibrator peptide
For B1, the IC50 turned out to be 0.0369 µg/mL.
